Experimental data taken from the supplement of paper PMC7877785.
± gives the uncertainty stated by the source.

Assay: self-splicing fitness, log relative to wild type (ln ratio); higher = more splicing; Tetrahymena group I intron in knt gene, E. coli kanamycin selection, DiMSum; sequences stand for … in CUCUCU…GGAGGGAAAAGUUAUCAGGCAUGCACCUGGUAGCUAGUCUUUAAACCAAUAGAUUGCAUCGGUUUAAAAGGCAAGACCGUCAAAUUGCGGGAAAGGGGUCAACAGCCGUUCAGUACCAAGUCUCAGGGGAAACUUUGAGAUGGCCUUGCAAAGGGUAUGGUAAUAAGCUGACGGACAUGGUCCUAACCACGCAGCCAAGUCCUAAGUCAACAGAUCUUCUGUUGAUAUGGAUGCAGUUCACAGACUAAAUGUCGGUCGGGGAAGAUGUAUUCUUCUCAUAAGAUAUAGUCGGACCUCUCCUUAAUGGGAGCUAGCGGAUGAAGUGAUGCAACACUGGAGCCGCUGGGAACUAAUUUGUAUGCGAAAGUAUAUUGAUUAGUUUUGGAGUACUCGUGGUCG
In short: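 Pooled colonies went to amplicon sequencing on an Illumina HiSeq 2500 after six replicate transformations. The plates were LB agar with 100 μg/mL carbenicillin, 50 μM IPTG and 0.2% rhamnose, with or without 25 μg/mL kanamycin, incubated overnight at 37°C or 30°C. The E. coli BL21(DE3) library had all eight P1ex-region intron nucleotides randomised, the intron placed in the knt kanamycin-resistance gene on pET-22b(+). DiMSum fitness is the error-weighted combination of replicate fold changes, kanamycin against none, normalised to wild type.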

Sequence | self-splicing fitness (ln) (30 °C) | self-splicing fitness (ln) (37 °C)
GGAGAGCAAUAUUACGAUGA | -2.47 ± 0.49 | 
AGCGAGCAAUAUUACGCUCU | -3.64 ± 0.35 | -2.61 ± 0.29
GAGCAGCAAUAUUACGGUCG | -2 ± 0.17 | -2.28 ± 0.17
CAGGAGCAAUAUUACGAGAA |  | -0.522 ± 0.22
GUCGAGCAAUAUUACGUAAA | -2.73 ± 0.29 | -0.959 ± 0.27
GACCAGCAAUAUUACGUCGG | -2.79 ± 0.21 | -1.98 ± 0.28
GUCUAGCAAUAUUACGGUAC | -0.985 ± 0.14 | -0.625 ± 0.17
GGACAGCAAUAUUACGCAGA | -0.851 ± 0.16 | -0.643 ± 0.15
AGAUAGCAAUAUUACGAUAC | -3.11 ± 0.26 | -0.943 ± 0.19
CCCAAGCAAUAUUACGUUAC | -4.13 ± 0.15 | -2.37 ± 0.13
CAUGAGCAAUAUUACGUAAU | -3.04 ± 0.29 | -2.73 ± 0.3
ACUAAGCAAUAUUACGCAUC | -3.13 ± 0.28 | -1.54 ± 0.2
GUAGAGCAAUAUUACGGCGU | -0.532 ± 0.077 | 0.0227 ± 0.088
GACCAGCAAUAUUACGAUCA | -1.38 ± 0.1 | -1.1 ± 0.12
AGGCAGCAAUAUUACGUUGC | -4.18 ± 0.36 | -2.13 ± 0.29
AAAGAGCAAUAUUACGUCAU | -2.38 ± 0.37 | -2.45 ± 0.35
UUACAGCAAUAUUACGGCCC | -0.167 ± 0.33 | 
GUGAAGCAAUAUUACGUGUC | -2.89 ± 0.11 | -1.83 ± 0.12
UGCCAGCAAUAUUACGGUCA | -0.926 ± 0.081 | -0.0439 ± 0.092
CAUAAGCAAUAUUACGGUGU | -3.84 ± 0.15 | -2.38 ± 0.14
UAUAAGCAAUAUUACGUAAC | -3.16 ± 0.27 | 0.142 ± 0.22
GUUUAGCAAUAUUACGAAAU | -1.54 ± 0.11 | -1.85 ± 0.19
CUUCAGCAAUAUUACGUUAG | -1.66 ± 0.071 | -1.25 ± 0.094
AUCGAGCAAUAUUACGAGUU | -2.66 ± 0.23 | -1.31 ± 0.18
GGGCAGCAAUAUUACGACAU | -0.411 ± 0.013 | 0.0276 ± 0.033
